Experiment [1] has as its target DnaK, wild type, with a C-terminal hexahistidine tag (E. coli, UniProt P0A6Y8 1-638). Description: SPR.
The next experiment concerns the target DnaK V389A (E. coli, UniProt P0A6Y8 1-638, V389A). Description: SPR. (In SPR one partner is held on a chip, and binding of the other changes the refractive index at the surface.)

B1: DnaJ with the biotin carboxyl carrier protein (BCCP) fused at the C-terminus (natural protein, E. coli, UniProt P08622 1-376, looked up)
chain: MAKQDYYEILGVSKTAEEREIRKAYKRLAMKYHPDRNQGDKEAEAKFKEIKEAYEVLTDSQKRAAYDQYGHAAFEQGGMGGGGFGGGADFSDIFGDVFGDIFGGGRGRQRAARGADLRYNMELTLEEAVRGVTKEIRIPTLEECDVCHGSGAKPGTQPQTCPTCHGSGQVQMRQGFFAVQQTCPHCQGRGTLIKDPCNKCHGHGRVERSKTLSVKIPAGVDTGDRIRLAGEGEAGEHGAPAGDLYVQVQVKQHPIFEREGNNLYCEVPINFAMAALGGEIEVPTLDGRVKLKVPGETQTGKLFRMRGKGVKSVRGGAQGDLLCRVVVETPVGLNERQKQLLQELQESFGGPTGEHNSPRSKSFFDGVKKFFDDLTR
With B1, the binding result (in experiment [1]; in the experiment with DnaK V389A) was “binds” in each case.

These data come from paper PMC5737734 (Journal of molecular biology, 2011).
